Article PMC6370916

T1: recombinant human SEMA3C Fc chimera, Q99985
T1 chain: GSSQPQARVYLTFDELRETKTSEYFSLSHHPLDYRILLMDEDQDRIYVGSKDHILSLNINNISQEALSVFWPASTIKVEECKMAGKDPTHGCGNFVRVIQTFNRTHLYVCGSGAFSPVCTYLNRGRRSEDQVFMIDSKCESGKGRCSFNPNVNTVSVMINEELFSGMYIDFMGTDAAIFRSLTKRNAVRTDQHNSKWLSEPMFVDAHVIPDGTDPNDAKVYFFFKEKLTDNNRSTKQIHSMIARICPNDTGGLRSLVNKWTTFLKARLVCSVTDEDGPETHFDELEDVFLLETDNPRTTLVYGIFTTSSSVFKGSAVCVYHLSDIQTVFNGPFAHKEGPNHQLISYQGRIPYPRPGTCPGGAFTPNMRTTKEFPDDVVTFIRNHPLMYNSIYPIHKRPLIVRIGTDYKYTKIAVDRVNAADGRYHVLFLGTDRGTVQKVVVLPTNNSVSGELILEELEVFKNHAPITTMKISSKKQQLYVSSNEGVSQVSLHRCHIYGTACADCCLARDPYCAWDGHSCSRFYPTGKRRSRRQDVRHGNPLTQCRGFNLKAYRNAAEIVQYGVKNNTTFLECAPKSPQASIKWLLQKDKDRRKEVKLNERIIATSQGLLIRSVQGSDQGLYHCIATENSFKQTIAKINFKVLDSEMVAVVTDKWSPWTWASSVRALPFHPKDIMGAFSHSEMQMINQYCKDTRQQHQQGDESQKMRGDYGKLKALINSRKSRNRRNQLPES


Biological target: T1, recombinant human SEMA3C Fc chimera, …
Test: Saturation receptor-ligand binding assay
Conditions: chain shown with the change, SEMA3C 0-10 nM, read-out O.D. 450 nm
[1] = NRP2 co-expressed with WT PLXNA1, parent: 0.63 nM
[2] = NRP2 co-expressed with WT PLXNA1, parent: 0.65
[3] = NRP2 co-expressed with WT PLXNA2, parent: 0.89 nM
[4] = NRP2 co-expressed with WT PLXNA2, parent: 0.60
[5] = NRP2 co-expressed with WT PLXNA3, parent: 0.93 nM
[6] = NRP2 co-expressed with WT PLXNA3, parent: 0.54
[7] = NRP2 co-expressed with WT PLXNA4, parent: 1.03 nM
[8] = NRP2 co-expressed with WT PLXNA4, parent: 0.65
[9] = cells expressing NRP2 alone (no PLXNA co-expressed), parent: 0.81 nM
[10] = cells expressing NRP2 alone (no PLXNA co-expressed), parent: 0.89

Row | Binder | Kd [1] [nM] | other: Bmax [2] [O.D. 450 nm] | Kd [3] [nM] | other: Bmax [4] [O.D. 450 nm] | Kd [5] [nM] | other: Bmax [6] [O.D. 450 nm] | Kd [7] [nM] | other: Bmax [8] [O.D. 450 nm] | Kd [9] [nM] | other: Bmax [10] [O.D. 450 nm]
1 | human Neuropilin 2, wild type, O60462 A506V (protein) RGQPDPPCGGRLNSKDAGYITSPGYPQDYPSHQNCEWIVYAPEPNQKIVLNFNPHFEIEKHDCKYDFIEIRDGDSESADLLGKHCGNIAPPTIISSGSMLYIKFTSDYARQGAGFSLRYEIFKTGSEDCSKNFTSPNGTIESPGFPEKYPHNLDCTFTILAKPKMEIILQFLIFDLEHDPLQVGEGDCKYDWLDIWDGIPHVGPLIGKYCGTKTPSELRSSTGILSLTFHTDMAVAKDGFSARYYLVHQEPLENFQCNVPLGMESGRIANEQISASSTYSDGRWTPQQSRLHGDDNGWTPNLDSNKEYLQVDLRFLTMLTAIATQGAISRETQNGYYVKSYKLEVSTNGEDWMVYRHGKNHKVFQANNDATEVVLNKLHAPLLTRFVRIRPQTWHSGIALRLELFGCRVTDAPCSNMLGMLSGLIADSQISASSTQEYLWSPSAARLVSSRSGWFPRIPQAQPGEEWLQVDLGTPKTVKGVIIQGVRGGDSITAVEARAFVRKFKVSYSLNGKDWEYIQDPRTQQPKLFEGNMHYDTPDIRRFDPIPAQYVRVYPERWSPAGIGMRLEVLGCDWTDSKPTVETLGPTVKSEETTTPYPTEEEATECGENCSFEDDKDLQLPSGFNCNFDFLEEPCGWMYDHAKWLRTTWASSSSPNDRTFPDDRNFLRLQSDSQREGQYARLISPPVHLPRSPVCMEFQYQATGGRGVALQVVREASQESKLLWVIREDQGGEWKHGRIILPSYDMEYQIVFEGVIGKGRSGEIAIDDIRISTDVPLENCMEPISAFAGENFKVDIPEIHEREGYEDEIDDEYEVDWSNSSSATSGSGAPSTDKEKSWLYTLDPILITIIAMSSLGVLLGATCAGLLLYCTCSYSGLSSRSCTTLENYNFELYDGLKHKVKMNHQKCCSEA | 0.67 | 0.55 | 1 | 0.52 | 1.12 | 0.42 | 1.25 | 0.55 | 0.73 | 0.84
2 | human Neuropilin 2, wild type, O60462 V573L (protein) RGQPDPPCGGRLNSKDAGYITSPGYPQDYPSHQNCEWIVYAPEPNQKIVLNFNPHFEIEKHDCKYDFIEIRDGDSESADLLGKHCGNIAPPTIISSGSMLYIKFTSDYARQGAGFSLRYEIFKTGSEDCSKNFTSPNGTIESPGFPEKYPHNLDCTFTILAKPKMEIILQFLIFDLEHDPLQVGEGDCKYDWLDIWDGIPHVGPLIGKYCGTKTPSELRSSTGILSLTFHTDMAVAKDGFSARYYLVHQEPLENFQCNVPLGMESGRIANEQISASSTYSDGRWTPQQSRLHGDDNGWTPNLDSNKEYLQVDLRFLTMLTAIATQGAISRETQNGYYVKSYKLEVSTNGEDWMVYRHGKNHKVFQANNDATEVVLNKLHAPLLTRFVRIRPQTWHSGIALRLELFGCRVTDAPCSNMLGMLSGLIADSQISASSTQEYLWSPSAARLVSSRSGWFPRIPQAQPGEEWLQVDLGTPKTVKGVIIQGARGGDSITAVEARAFVRKFKVSYSLNGKDWEYIQDPRTQQPKLFEGNMHYDTPDIRRFDPIPAQYVRLYPERWSPAGIGMRLEVLGCDWTDSKPTVETLGPTVKSEETTTPYPTEEEATECGENCSFEDDKDLQLPSGFNCNFDFLEEPCGWMYDHAKWLRTTWASSSSPNDRTFPDDRNFLRLQSDSQREGQYARLISPPVHLPRSPVCMEFQYQATGGRGVALQVVREASQESKLLWVIREDQGGEWKHGRIILPSYDMEYQIVFEGVIGKGRSGEIAIDDIRISTDVPLENCMEPISAFAGENFKVDIPEIHEREGYEDEIDDEYEVDWSNSSSATSGSGAPSTDKEKSWLYTLDPILITIIAMSSLGVLLGATCAGLLLYCTCSYSGLSSRSCTTLENYNFELYDGLKHKVKMNHQKCCSEA | 0.68 | 0.66 | 1.01 | 0.67 | 1.18 | 0.52 | 1.07 | 0.59 | 0.83 | 0.93
